Key:
[1] = target: T1, native human IL-15 receptor on human cells (human, UniProt Q13261 31-267); experiment: radiolabeled IL-15 binding to vascular endothelial cells of venous origin
T1 construct: whole, on cells; Endogenous receptor; its subunits on these cells were not defined; Clone W5 was later cloned from W126-VA4 cells, and clones A212 and A133 from A172 cells
From the text: (§1) Various human cell lines and tissues were screened for the ability to bind radiolabeled IL-15 substantially as described in Example 1. High affinity binding was observed on activated peripheral blood mononuclear cells, activated monocytes and some EBV-transformed cell lines.

[2] = target: T2, murine IL-15R (full length, cDNA clone D1-4-D5) (murine, UniProt Q60819 33-263); experiment: equilibrium binding of 125I-simian IL-15 to 32Dm15Rα-102 cells (transfected with IL-15Rα)
T2 construct: Cell-surface receptor: recombinant on COS-7 and 32D transfectants, native or endogenous on D10, 32D-01, 32Dmβ-5 and CTLL.2 cells; 32D lines also carry IL-2Rα and γc, and some carry IL-2Rβ; the cell line is named under assay; also called murine IL-15Rα; IL-15Rα
T2 sequence: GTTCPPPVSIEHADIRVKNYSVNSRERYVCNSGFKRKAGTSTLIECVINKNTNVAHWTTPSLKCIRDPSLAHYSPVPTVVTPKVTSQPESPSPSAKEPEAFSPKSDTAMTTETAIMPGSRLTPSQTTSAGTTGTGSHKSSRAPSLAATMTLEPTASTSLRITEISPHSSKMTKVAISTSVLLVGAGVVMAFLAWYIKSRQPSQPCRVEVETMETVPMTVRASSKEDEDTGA

[3] = target: T2, murine IL-15R (full length, cDNA clone …); experiment: equilibrium binding of 125I-simian IL-15 to parental 32D-01 cells (endogenous IL-15Rα)
[4] = target: T2, murine IL-15R (full length, cDNA clone …); experiment: equilibrium binding of 125I-simian IL-15 to 32Dmβm15Rα-3 cells (recombinant IL-15Rα and IL-2Rβ, γc constitutive)
[5] = target: T3, complexes of murine β and γc (IL-2Rβ and common γ chain) in the absence of the IL-15Rα chain (murine, UniProt P16297 27-539; P34902 23-369); experiment: equilibrium binding of 125I-simian IL-15 to 32Dmβ-5 cells: no IL-15 binding sites beyond those of the 32D-01 parent line
T3 construct: whole, on cells; On 32Dmβ-5 cells, which also express IL-2Rα and about 40 sites per cell of endogenous IL-15Rα; also called murine IL-2Rβ/γc; 32Dmβ-5 cells
T3 sequence (looked up) 1: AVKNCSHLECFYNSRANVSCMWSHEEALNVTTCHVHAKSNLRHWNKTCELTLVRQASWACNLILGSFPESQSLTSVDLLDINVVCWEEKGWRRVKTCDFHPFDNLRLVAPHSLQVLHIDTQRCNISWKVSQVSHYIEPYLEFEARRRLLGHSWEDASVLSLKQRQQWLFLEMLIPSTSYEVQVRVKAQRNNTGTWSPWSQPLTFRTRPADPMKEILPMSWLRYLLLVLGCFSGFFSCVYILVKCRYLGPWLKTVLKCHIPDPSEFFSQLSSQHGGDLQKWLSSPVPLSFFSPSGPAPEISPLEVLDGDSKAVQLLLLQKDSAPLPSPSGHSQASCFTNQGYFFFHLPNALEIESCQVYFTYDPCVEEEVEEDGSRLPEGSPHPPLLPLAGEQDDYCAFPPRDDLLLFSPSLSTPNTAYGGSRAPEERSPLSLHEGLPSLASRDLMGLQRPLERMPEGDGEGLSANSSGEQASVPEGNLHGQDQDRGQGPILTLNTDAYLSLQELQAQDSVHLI
T3 sequence (looked up) 2: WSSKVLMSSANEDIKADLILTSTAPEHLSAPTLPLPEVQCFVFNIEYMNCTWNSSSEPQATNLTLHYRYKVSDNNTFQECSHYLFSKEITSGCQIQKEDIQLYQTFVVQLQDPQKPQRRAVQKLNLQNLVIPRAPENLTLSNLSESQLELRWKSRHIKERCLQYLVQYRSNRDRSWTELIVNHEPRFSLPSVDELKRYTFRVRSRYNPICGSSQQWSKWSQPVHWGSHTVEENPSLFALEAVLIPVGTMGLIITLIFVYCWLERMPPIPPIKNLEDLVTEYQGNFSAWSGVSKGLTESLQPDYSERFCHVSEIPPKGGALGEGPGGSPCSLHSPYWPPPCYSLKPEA

[6] = target: T2, murine IL-15R (full length, cDNA clone …); experiment: equilibrium binding of 125I-simian IL-15 to 32Dmβ-5 cells (sites ascribed to endogenous IL-15Rα)
[7] = target: T1, native human IL-15 receptor on human …; experiment: radiolabeled IL-15 binding to the glioblastoma cell line A-172
From the text: as §1

[8] = target: T2, murine IL-15R (full length, cDNA clone …); experiment: equilibrium binding of 125I-simian IL-15 to D10 cells (native IL-15R)
[9] = target: T1, native human IL-15 receptor on human …; experiment: radiolabeled IL-15 binding to the human fibroblast line W126-VA4
From the text: as §1

[10] = target: T2, murine IL-15R (full length, cDNA clone …); experiment: 125I-IL-15 binding to monolayers of COS cells transfected with clone D1-4-D5
Method: D. Recombinant IL-15R Binding. Plasmid DNA from IL-15 receptor expression plasmid was used to transfect a sub-confluent layer of monkey COS-7 cells using DEAE-dextran followed by chloroquine treatment, as described by Luthman et al., Nucl Acids Res. 11:1295 (1983) and McCutchan et al., J. Natl. Cancer Inst. 41:351 (1968). The cells were then grown in culture for three days to permit transient expression of the inserted sequences. After three days, the cell monolayers were assayed for ¹²⁵I-IL-15 binding essentially as described by Park, et al., J. Exp. Med. 166:476 (1987). Non-specific binding of ¹²⁵I-IL-15 was measured in the presence of 200-fold or greater excess of unlabeled IL-15.

[11] = target: T1, native human IL-15 receptor on human …; experiment: radiolabeled IL-15 binding to vascular endothelial cells of arterial origin
From the text: as §1

T1 sequence (Q13261 31-267): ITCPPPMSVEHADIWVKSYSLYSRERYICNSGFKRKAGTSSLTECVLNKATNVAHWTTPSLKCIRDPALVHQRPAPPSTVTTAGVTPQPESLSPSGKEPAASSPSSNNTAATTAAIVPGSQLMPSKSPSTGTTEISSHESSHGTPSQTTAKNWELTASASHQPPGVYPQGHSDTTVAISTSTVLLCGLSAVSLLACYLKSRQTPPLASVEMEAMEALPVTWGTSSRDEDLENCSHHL

B1: Recombinant flag simian IL-15 expressed in yeast (ligand)
chain: DYKDDDDKNWVNVISDLKKIEDLIQSMHIDATLYTESDVHPSCKVTAMKCFLLELQVISHESGDTDIHDTVENLIILANNILSSNGNITESGCKECEELEEKNIKEFLQSFVHIVQMFINTS
modifications: radioiodinated (125I, enzymobead iodination reagent); labelled residues not stated
notes: Flag-tagged simian IL-15 made in yeast, purified and radioiodinated; also called 125I-IL-15; 125I-simian IL-15
- Kd [1]: 0.033 nM
- Ka [2]: 1.5e+11 M⁻¹
- Ka [3]: 1.4e+11 M⁻¹
- Ka [4]: 2.2e+11 M⁻¹
- binding result [5]: no binding
- Ka [6]: 1.9e+11 M⁻¹
- Kd [7]: 0.05 to 0.138 nM
- Ka [8]: 1.3e+11 M⁻¹
- Kd [9]: 0.027 nM
- Kd [10]: 1 to 2.2 nM
- Kd [11]: 0.163 nM
